Our source for the M6P Receptor Column Binding: % Bound and Kd values is US20100068195A1.

As a reminder, the Kd is the equilibrium constant for the complex coming apart. A lower Kd goes with higher affinity.

Test [1] deals with mannose-6-phosphate (M6P) receptor. Description: M6P receptor affinity column (Affi-Gel 15): 6 ug GALNS loaded, eluted with a mannose-6-phosphate gradient, quantified by GALNS ELISA.
The target is the same in test [2]. Description: M6P receptor plate binding assay: plates coated with 4 ug/mL M6P receptor, GALNS 0.16-10 nM, bound enzyme read by 4MU-Gal-6S activity, single-site fit.
Test [3] shares this target. Put plainly: M6P receptor plate binding assay (receptor-coated plate, bound enzyme read by activity).

B1: recombinant human N-acetylgalactosamine-6-sulfatase (GALNS) produced from G71S clone 4 (enzyme)
chain: APQPPNILLLLMDDMGWGDLGVYGEPSRETPNLDRMAAEGLLFPNFYSANPLCSPSRAALLTGRLPIRNGFYTTNAHARNAYTPQEIVGGIPDSEQLLPELLKKAGYVSKIVGKWHLGHRPQFHPLKHGFDEWFGSPNCHFGPYDNKARPNIPVYRDWEMVGRYYEEFPINLKTGEANLTQIYLQEALDFIKRQARHHPFFLYWAVDATHAPVYASKPFLGTSQRGRYGDAVREIDDSIGKILELLQDLHVADNTFVFFTSDNGAALISAPEQGGSNGPFLCGKQTTFEGGMREPALAWWPGHVTAGQVSHQLGSIMDLFTTSLALAGLTPPSDRAIDGLNLLPTLLQGRLMDRPIFYYRGDTLMAATLGQHKAHFWTWTNSWENFRQGIDFCPGQNVSGVTTHNLEDHTKLPLIFHLGRDPGERFPLSFASAEYQEALSRITSVVQQHQEALVPAQPQLNVCNWAVMNWAPPGCEKLGKCLTPPESIPKKCLWSH
modifications: Cys at position 53 of the precursor (position 79 of SEQ ID NO:4) converted to Calpha-formylglycine (FGly), about 90%; N-linked glycans at Asn178 (bis-phosphorylated mannose 7, BPM7) and Asn397 (oligomannose-type), numbered on the secreted polypeptide
In test [1], B1 displayed an M6P Receptor Column Binding: % Bound of 56%. In test [2], this molecule registered a Kd of 2.4 nM.

B2: recombinant human N-acetylgalactosamine-6-sulfatase (GALNS) produced from G71S clone C2 (enzyme)
chain: APQPPNILLLLMDDMGWGDLGVYGEPSRETPNLDRMAAEGLLFPNFYSANPLCSPSRAALLTGRLPIRNGFYTTNAHARNAYTPQEIVGGIPDSEQLLPELLKKAGYVSKIVGKWHLGHRPQFHPLKHGFDEWFGSPNCHFGPYDNKARPNIPVYRDWEMVGRYYEEFPINLKTGEANLTQIYLQEALDFIKRQARHHPFFLYWAVDATHAPVYASKPFLGTSQRGRYGDAVREIDDSIGKILELLQDLHVADNTFVFFTSDNGAALISAPEQGGSNGPFLCGKQTTFEGGMREPALAWWPGHVTAGQVSHQLGSIMDLFTTSLALAGLTPPSDRAIDGLNLLPTLLQGRLMDRPIFYYRGDTLMAATLGQHKAHFWTWTNSWENFRQGIDFCPGQNVSGVTTHNLEDHTKLPLIFHLGRDPGERFPLSFASAEYQEALSRITSVVQQHQEALVPAQPQLNVCNWAVMNWAPPGCEKLGKCLTPPESIPKKCLWSH
modifications: active site Cys at position 53 of the precursor (position 79 of SEQ ID NO:4) converted to Calpha-formylglycine (percent not printed for this clone); N-linked glycans at Asn178 and Asn397, bis-phosphorylated oligomannose 0.69 mol/mol
Take B2: the Kd in test [3] is 5.7 nM. That is a single-digit nanomolar value.
